Patent US20250332264A1, “GhR-BINDING PEPTIDE AND COMPOSITION COMPRISING SAME” (priority 2021, published 2025)
Starred links: 1 amine or outer side, 2 acyl side, 3 side chain; linkers in the order of their positions; H or OH if unused. Positions of bridges follow the written chain, without caps; N, C: chain ends. Non-standard residues stand in square brackets, D forms with d. Residues, ends and D or L forms follow the SMILES beside them. Groups on a side chain read outwards from the residue. *: point of attachment. KCOpipzaa = N6-(4-(carboxymethyl)piperazine-1-carbonyl)-L-lysine, O=C(NCCCC[C@H](N[*:1])C(=O)[*:2])N1CCN(CC(=O)[*:3])CC1; A4pipaa = 4-amino-1-(carboxymethyl)piperidine-4-carboxylic acid, O=C(C1(N[*:1])CCN(CC(=O)[*:3])CC1)[*:2]; X3 = NC(=O)[C@H](CCCCN*)NC(=O)CC[C@H](NC(=O)CC[C@H](NC(=O)CCCCCCCCCCCCCCC(=O)O)C(=O)O)C(=O)O; X10 = NC(=O)[C@H](CCCCN*)NC(=O)CC[C@H](NC(=O)CC[C@H](NC(=O)CCCc1ccc(I)cc1)C(=O)O)C(=O)O; Trp(1-CH2CO) = O=C([C@H](Cc1cn(CC(=O)[*:3])c2ccccc12)N[*:1])[*:2]; Trp(5-OMe) = COc1ccc2[nH]cc(C[C@H](N)C(=O)O)c2c1; Butanoyl(4-(4-I-phenyl)) = O=C(CCCc1ccc(I)cc1)*; Trp(5-OH) = N[C@@H](Cc1c[nH]c2ccc(O)cc12)C(=O)O; Phe(4-COOH) = N[C@@H](Cc1ccc(C(=O)O)cc1)C(=O)O; Piperazinyl(4-CH2COOH) = O=C(O)CN1CCN(*)CC1; C16 diacid = O=C(O)CCCCCCCCCCCCCCC(=O)*; γGlu = O=C(O)[C@H](CCC(=O)[*:2])N[*:1]; Aad = N[C@@H](CCCC(=O)O)C(=O)O; NMeK = CN[C@@H](CCCCN)C(=O)O; Aib = CC(C)(N)C(=O)O; CO = O=C([*:1])[*:2]

T1: Recombinant human GhR-Fc protein (R&D Systems) (human, UniProt P10912 19-264, limits assumed)
T1 construct: Bought from R&D Systems; Amine-coupled to a CM5 chip in the SPR assay; also called hGhR; recombinant human GhR protein fused to Fc portion of human IgG; not shown: Fc portion of human IgG
T1 sequence (looked up): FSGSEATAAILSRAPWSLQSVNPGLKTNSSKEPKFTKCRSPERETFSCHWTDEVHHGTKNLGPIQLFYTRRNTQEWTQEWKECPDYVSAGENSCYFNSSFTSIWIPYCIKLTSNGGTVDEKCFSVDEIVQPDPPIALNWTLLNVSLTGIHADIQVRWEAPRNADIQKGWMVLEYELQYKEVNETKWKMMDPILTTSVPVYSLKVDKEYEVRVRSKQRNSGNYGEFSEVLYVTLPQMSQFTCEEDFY


Assays:
[1] = biological target: T2, Recombinant human GhR-Fc protein (Homo sapiens, UniProt P10912); assay: Binding activity of hGhR binding peptide by surface plasmon resonance (SPR), Biacore T200, single-cycle kinetics; conditions: human GhR-Fc immobilized on CM5 chip, KD calculated from ka and kd
T2 construct: purchased R&D Systems
Protocol: (§1) SPR assay was performed using Biacore T200 (cytiva: Former GE Healthcare). After the equilibration of Series S Sensor Chip CM5 (produced by cytiva: Former GE Healthcare) with Running Buffer (HBS-EP with 1% (v/v) DMSO), an EDC/NHS mixture was injected at a flow rate of 10 μL/min for 7 minutes to thereby activate the functional groups on sensor chip. Recombinant human GhR-Fc protein (R&D Systems) in 10 mM Acetate (pH4.0) was injected immobilized to at a flow rate of 5 μL/min. It took 7 minutes to immobilize the GhR on the substrate surfaces of the sensor chip. Then Ethanolamine was injected at a flow rate of 10 μL/min for 7 minutes. 1M Ethanolamine (aq.) was injected at a flow rate of 10 μL/min for 420 seconds for capping.
(§2) Using these Peptide Samples, kinetics of peptides against human GhR-Fc protein were measured. The method adopted for sample measurement was a single-cycle kinetics method. The analysis was conducted using the evaluation software provided with Biacore T200. A DMSO correction curve obtained by solvent correction measurements was applied for the analysis. Kinetics fitting was done on the difference data obtained by subtracting the baseline data from sample measurement data. KD values were calculated based on the association rate constant (ka) and dissociation rate constant (kd).
Furthermore, “obs. m/z [M+2H]2+” indicates the ESI-MS(+) observed value. Unless otherwise specified, this is bivalent ([M+2H]^2+).

[2] = biological target: T1, Recombinant human GhR-Fc protein (R&D …); assay: SPR, Biacore T200, single-cycle kinetics, GhR-Fc immobilised on CM5
Protocol: as §1, with “capping. 10 mM Peptides in DMSO were diluted to obtain 10 uM with Running Buffer, and prepared 100 nM, 50 nM, 25 nM, 10 nM, 5 nM of each peptide solutions (Peptide Samples).” for “capping.”
as §2

T2 sequence (P10912 with tags, fused parts or gaps limits assumed): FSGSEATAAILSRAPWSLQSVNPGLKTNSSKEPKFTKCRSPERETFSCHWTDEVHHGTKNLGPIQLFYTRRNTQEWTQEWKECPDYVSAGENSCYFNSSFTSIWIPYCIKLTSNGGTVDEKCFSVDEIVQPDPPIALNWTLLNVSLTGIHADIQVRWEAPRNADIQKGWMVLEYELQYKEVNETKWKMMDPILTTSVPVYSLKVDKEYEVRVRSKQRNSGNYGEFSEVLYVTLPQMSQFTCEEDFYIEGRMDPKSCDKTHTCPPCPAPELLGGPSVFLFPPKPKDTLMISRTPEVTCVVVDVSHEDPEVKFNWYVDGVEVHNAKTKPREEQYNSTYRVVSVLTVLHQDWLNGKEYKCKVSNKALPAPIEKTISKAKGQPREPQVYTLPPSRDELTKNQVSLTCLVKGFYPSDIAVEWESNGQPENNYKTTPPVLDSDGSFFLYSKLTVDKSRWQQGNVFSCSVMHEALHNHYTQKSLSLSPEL

Molecule	Kd [1]	Kd [2]
CC(C)[C@@H]1NC(=O)[C@H](C(C)C)NC(=O)[C@@H]2CCCCNC(=O)Cn3cc(c4ccccc43)C[C@H](NC(=O)[C@H](CC(N)=O)NC(=O)[C@H](CO)NC1=O)C(=O)N[C@@H](Cc1ccc(C(=O)O)cc1)C(=O)N[C@@H](CCCCN)C(=O)N[C@@H](Cc1c[nH]c3ccc(O)cc13)C(=O)NC(C)(C)C(=O)N[C@@H](C(C)C)C(=O)N[C@H](C(=O)NCC(=O)N1CCC[C@H]1C(=O)N[C@H](CO)C(=O)N[C@H](CO)C(=O)N[C@H](CO)C(=O)NCCCC[C@H](NC(=O)CC[C@H](NC(=O)CC[C@H](NC(=O)CCCc1ccc(I)cc1)C(=O)O)C(=O)O)C(N)=O)CSCC(=O)N[C@@H](Cc1ccc(C(=O)O)cc1)C(=O)N2C [Compound 14] ({CH2CO}-[Phe(4-COOH)][NMeK]VVSN[Trp(1-CH2CO)][Phe(4-COOH)]K[Trp(5-OH)][Aib]VCGP[dS][dS][dS]-X10; lactam 2-7; thioether N-13)	1.88 nM	
CC(C)[C@@H]1NC(=O)[C@H](C(C)C)NC(=O)[C@@H]2CCCCNC(=O)Cn3cc(c4ccccc43)C[C@H](NC(=O)[C@H](CC(N)=O)NC(=O)[C@H](CO)NC1=O)C(=O)N[C@@H](Cc1ccc(C(=O)O)cc1)C(=O)N[C@@H](CCCC(N)=O)C(=O)N[C@@H](Cc1c[nH]c3ccc(O)cc13)C(=O)NC(C)(C)C(=O)N[C@@H](C(C)C)C(=O)N[C@H](C(=O)NCCCC[C@H](NC(=O)CC[C@H](NC(=O)CC[C@H](NC(=O)CCCc1ccc(I)cc1)C(=O)O)C(=O)O)C(N)=O)CSCC(=O)N[C@@H](Cc1ccc(C(=O)O)cc1)C(=O)N2C [Compound 5] ({CH2CO}-[Phe(4-COOH)][NMeK]VVSN[Trp(1-CH2CO)][Phe(4-COOH)][Aad](NH2)[Trp(5-OH)][Aib]VC-X10; lactam 2-7; thioether N-13)	3.07 nM	
COc1ccc2[nH]cc(C[C@@H]3NC(=O)[C@H](CC(N)=O)NC(=O)[C@H](CO)NC(=O)[C@H](C(C)C)NC(=O)[C@H](C(C)C)NC(=O)[C@H](CCCCNC(=O)CC[C@H](NC(=O)CCCc4ccc(I)cc4)C(=O)O)N(C)C(=O)[C@H](Cc4ccc(O)cc4)NC(=O)CSC[C@@H](C(=O)NCC(=O)N4CCC[C@H]4C(=O)N[C@H](CO)C(=O)N[C@H](CO)C(=O)N[C@H](CO)C(N)=O)NC(=O)[C@H](C(C)C)NC(=O)C(C)(C)NC(=O)[C@H](Cc4c[nH]c5ccc(O)cc45)NC(=O)[C@H](CCCCNC(=O)N4CCN(CC(=O)O)CC4)NC(=O)[C@H](Cc4ccc(C(=O)O)cc4)NC3=O)c2c1 [Compound 48] ({CH2CO}-Y[NMeK]([γGlu-Butanoyl(4-(4-I-phenyl))])VVSN[Trp(5-OMe)][Phe(4-COOH)]K([CO-Piperazinyl(4-CH2COOH)])[Trp(5-OH)][Aib]VCGP[dS][dS][dS]-NH2; thioether N-13)	4.35 nM	
COc1ccc2[nH]cc(C[C@@H]3NC(=O)[C@H](CC(N)=O)NC(=O)[C@H](CO)NC(=O)[C@H](C(C)C)NC(=O)[C@H](C(C)C)NC(=O)[C@H](CCCCNC(=O)CC[C@H](NC(=O)CCCc4ccc(I)cc4)C(=O)O)N(C)C(=O)[C@H](Cc4ccc(O)cc4)NC(=O)CSC[C@@H](C(=O)NCC(=O)N4CCC[C@H]4C(=O)N[C@H](CO)C(=O)N[C@H](CO)C(=O)N[C@H](CO)C(N)=O)NC(=O)[C@H](C(C)C)NC(=O)C(C)(C)NC(=O)[C@H](Cc4c[nH]c5ccc(O)cc45)NC(=O)[C@H](CCCCN)NC(=O)[C@H](Cc4ccc(O)cc4)NC3=O)c2c1 [Compound 46] ({CH2CO}-Y[NMeK]([γGlu-Butanoyl(4-(4-I-phenyl))])VVSN[Trp(5-OMe)]YK[Trp(5-OH)][Aib]VCGP[dS][dS][dS]-NH2; thioether N-13)	1.07 nM	
CC(C)[C@@H]1NC(=O)[C@H](C(C)C)NC(=O)[C@@H]2CCCCNC(=O)Cn3cc(c4ccccc43)C[C@H](NC(=O)[C@H](CC(N)=O)NC(=O)[C@H](CO)NC1=O)C(=O)N[C@@H](Cc1ccc(C(=O)O)cc1)C(=O)N[C@@H](CCCCNC(=O)N1CCN(CC(=O)O)CC1)C(=O)N[C@@H](Cc1c[nH]c3ccc(O)cc13)C(=O)NC(C)(C)C(=O)N[C@@H](C(C)C)C(=O)N[C@H](C(=O)NCCCC[C@H](NC(=O)CC[C@H](NC(=O)CC[C@H](NC(=O)CCCCCCCCCCCCCCC(=O)O)C(=O)O)C(=O)O)C(N)=O)CSCC(=O)N[C@@H](Cc1ccc(O)cc1)C(=O)N2C [Compound 22] ({CH2CO}-Y[NMeK]VVSN[Trp(1-CH2CO)][Phe(4-COOH)]K([CO-Piperazinyl(4-CH2COOH)])[Trp(5-OH)][Aib]VC-X3; lactam 2-7; thioether N-13)	11.2 nM	
{CH2CO}-Y[NMeK]VVSN[Trp(1-CH2CO)]YK[Trp(5-OH)][Aib]VCG-NH2 (thioether N-13; lactam 2-7; SMILES CC(C)[C@@H]1NC(=O)[C@H](C(C)C)NC(=O)[C@@H]2CCCCNC(=O)Cn3cc(c4ccccc43)C[C@H](NC(=O)[C@H](CC(N)=O)NC(=O)[C@H](CO)NC1=O)C(=O)N[C@@H](Cc1ccc(O)cc1)C(=O)N[C@@H](CCCCN)C(=O)N[C@@H](Cc1c[nH]c3ccc(O)cc13)C(=O)NC(C)(C)C(=O)N[C@@H](C(C)C)C(=O)N[C@H](C(=O)NCC(N)=O)CSCC(=O)N[C@@H](Cc1ccc(O)cc1)C(=O)N2C, also called Compound No. 1) [GhR_PD_139]		0.7 nM
{CH2CO}-Y[NMeK]VVSN[Trp(1-CH2CO)]YK[Trp(5-OH)][A4pipaa]VCK([Glu-Glu-C16 diacid])-NH2 (thioether N-13; lactam 2-7, also called Compound No. 29) [GhR_PD_237]		1.57 nM
{CH2CO}-Y[NMeK]VVSN[Trp(1-CH2CO)]YK[Trp(5-OH)][Aib]VCK([Glu-Glu-Butanoyl(4-(4-I-phenyl))])-NH2 (thioether N-13; lactam 2-7, also called Compound No. 32) [GhR_PD_246]		0.98 nM
{CH2CO}-[Phe(4-COOH)][NMeK]VVSN[Trp(1-CH2CO)]YK[Trp(5-OH)][A4pipaa]VCK([Glu-Glu-C16 diacid])-NH2 (thioether N-13; lactam 2-7, also called Compound No. 18) [GhR_PD_238]		2.4 nM
{CH2CO}-[Phe(4-COOH)][NMeK]VVSN[Trp(1-CH2CO)]YK[Trp(5-OH)][Aib]VCK([Glu-Glu-C16 diacid])-NH2 (thioether N-13; lactam 2-7, also called Compound No. 19) [GhR_PD_231]		1.93 nM
{CH2CO}-Y[NMeK]VVSN[Trp(1-CH2CO)]YK[Trp(5-OH)][Aib]VCG-NH2 (thioether N-13; lactam 2-7 via G, also called Compound No. 2) [GhR_PD_140]		1.22 nM
{CH2CO}-[Phe(4-COOH)][NMeK]VVSN[Trp(1-CH2CO)]YK[Trp(5-OH)][Aib]VCK([Glu-Glu-Butanoyl(4-(4-I-phenyl))])-NH2 (thioether N-13; lactam 2-7, also called Compound No. 21) [GhR_PD_215]		1.07 nM
{CH2CO}-Y[NMeK]VVSN[Trp(1-CH2CO)][Phe(4-COOH)]K[Trp(5-OH)][A4pipaa]VCK([Glu-Glu-C16 diacid])-NH2 (thioether N-13; lactam 2-7, also called Compound No. 23) [GhR_PD_239]		2.29 nM
{CH2CO}-Y[NMeK]VVSN[Trp(1-CH2CO)][Phe(4-COOH)]K[Trp(5-OH)][Aib]VCK([Glu-Glu-C16 diacid])-NH2 (thioether N-13; lactam 2-7, also called Compound No. 24) [GhR_PD_232]		2.59 nM
{CH2CO}-Y[NMeK]VVSN[Trp(1-CH2CO)][Phe(4-COOH)]K[Trp(5-OH)][Aib]VCK([Glu-Glu-Butanoyl(4-(4-I-phenyl))])-NH2 (thioether N-13; lactam 2-7, also called Compound No. 26) [GhR_PD_216]		1.59 nM
{CH2CO}-Y[NMeK]VVSN[Trp(1-CH2CO)]Y[KCOpipzaa][Trp(5-OH)][Aib]VCK([Glu-Glu-C16 diacid])-NH2 (thioether N-13; lactam 2-7, also called Compound No. 27) [GhR_PD_234]		1.79 nM
